What was measured:
PHAX [1] = biological target: PHAX (UniProt Q9H814); assay: EC50 of free RNA motif oligo competing protein binding to immobilised probe
Summary of the method: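 HEK293-FT lysate (2.5 mg protein/well) was pre-incubated 1 h at 4°C with free RNA oligos (0 nM to 30 μM), then 30 min at 4°C with the same 5′-amino-C6 oligos coupled to NHS-Sepharose beads. Bound proteins were quantified by label-free LC-MS/MS in three biological replicates and two independent experiments, and normalised to the water control. EC50 came from a four-parameter log-logistic fit; Kd is EC50 times a protein-dependent depletion factor.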

SSB = biological target: T1, SSB (UniProt P05455); assay: Kd (EC50 corrected by depletion factor)
T1 sequence: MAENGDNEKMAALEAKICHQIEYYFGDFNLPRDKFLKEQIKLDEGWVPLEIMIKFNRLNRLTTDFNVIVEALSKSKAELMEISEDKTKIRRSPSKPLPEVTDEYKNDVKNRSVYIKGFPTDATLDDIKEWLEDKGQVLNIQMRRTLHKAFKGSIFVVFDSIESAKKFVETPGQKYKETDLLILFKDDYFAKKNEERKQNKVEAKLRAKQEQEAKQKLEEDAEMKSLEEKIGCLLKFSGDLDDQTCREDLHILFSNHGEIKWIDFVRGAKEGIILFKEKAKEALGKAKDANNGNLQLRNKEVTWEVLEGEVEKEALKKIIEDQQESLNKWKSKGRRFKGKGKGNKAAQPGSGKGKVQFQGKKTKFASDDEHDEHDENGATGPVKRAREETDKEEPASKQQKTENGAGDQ
Procedure: (§1)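 Competition-binding assay: HEK293-FT cell lysate (2.5 mg protein) pre-incubated 1 h at 4°C with free motif-containing RNA oligos (0 to 30 µM, 12 doses), then pulled down with the same 5'-amino-C6 RNA oligos immobilised on NHS-Sepharose beads (30 min, 4°C). Bound proteins were quantified by label-free LC-MS/MS and normalised to the water control. EC50 came from a four-parameter log-logistic fit; Kd = EC50 x depletion factor. Random/reversed control probes are dropped.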

DHX36 = biological target: T2, DHX36 (UniProt Q9H2U1); assay: Kd (EC50 corrected by depletion factor)
T2 sequence: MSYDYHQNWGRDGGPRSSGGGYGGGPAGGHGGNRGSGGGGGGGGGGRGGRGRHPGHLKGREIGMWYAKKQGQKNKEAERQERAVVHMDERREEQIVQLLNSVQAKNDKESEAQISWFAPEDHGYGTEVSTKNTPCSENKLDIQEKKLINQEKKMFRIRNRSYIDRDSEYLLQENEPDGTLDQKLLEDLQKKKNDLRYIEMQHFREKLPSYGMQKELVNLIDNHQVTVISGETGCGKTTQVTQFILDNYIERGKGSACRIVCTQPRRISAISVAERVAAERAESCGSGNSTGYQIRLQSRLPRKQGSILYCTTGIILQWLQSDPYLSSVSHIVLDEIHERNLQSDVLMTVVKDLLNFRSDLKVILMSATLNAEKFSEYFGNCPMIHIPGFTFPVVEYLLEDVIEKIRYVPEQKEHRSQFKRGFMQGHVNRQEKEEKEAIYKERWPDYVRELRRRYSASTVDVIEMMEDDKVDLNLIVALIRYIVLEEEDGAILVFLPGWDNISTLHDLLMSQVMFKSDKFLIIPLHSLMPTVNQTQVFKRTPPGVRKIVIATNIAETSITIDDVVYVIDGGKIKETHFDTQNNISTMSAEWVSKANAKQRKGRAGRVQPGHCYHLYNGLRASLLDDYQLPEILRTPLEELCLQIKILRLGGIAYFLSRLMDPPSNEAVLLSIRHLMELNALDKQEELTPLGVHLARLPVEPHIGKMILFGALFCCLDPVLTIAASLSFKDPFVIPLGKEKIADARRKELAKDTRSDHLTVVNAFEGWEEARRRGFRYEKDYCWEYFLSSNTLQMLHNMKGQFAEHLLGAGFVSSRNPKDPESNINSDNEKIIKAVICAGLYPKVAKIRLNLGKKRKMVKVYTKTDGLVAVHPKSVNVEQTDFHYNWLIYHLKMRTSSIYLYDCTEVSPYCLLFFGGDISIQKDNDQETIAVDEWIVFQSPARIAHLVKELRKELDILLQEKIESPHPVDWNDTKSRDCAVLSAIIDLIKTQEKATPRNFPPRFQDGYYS
Procedure: as §1

LIN28B = biological target: T3, LIN28B (UniProt Q6ZN17); assay: Kd (EC50 corrected by depletion factor)
T3 sequence: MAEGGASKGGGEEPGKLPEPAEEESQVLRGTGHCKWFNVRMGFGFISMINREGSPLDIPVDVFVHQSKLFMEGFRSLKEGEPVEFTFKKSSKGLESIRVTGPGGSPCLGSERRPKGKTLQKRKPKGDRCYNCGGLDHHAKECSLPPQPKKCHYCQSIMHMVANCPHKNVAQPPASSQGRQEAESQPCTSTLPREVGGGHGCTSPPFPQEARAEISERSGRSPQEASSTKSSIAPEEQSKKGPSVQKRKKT
Procedure: as §1

RTCA = biological target: T4, RTCA (UniProt O00442); assay: Kd (EC50 corrected by depletion factor)
T4 sequence: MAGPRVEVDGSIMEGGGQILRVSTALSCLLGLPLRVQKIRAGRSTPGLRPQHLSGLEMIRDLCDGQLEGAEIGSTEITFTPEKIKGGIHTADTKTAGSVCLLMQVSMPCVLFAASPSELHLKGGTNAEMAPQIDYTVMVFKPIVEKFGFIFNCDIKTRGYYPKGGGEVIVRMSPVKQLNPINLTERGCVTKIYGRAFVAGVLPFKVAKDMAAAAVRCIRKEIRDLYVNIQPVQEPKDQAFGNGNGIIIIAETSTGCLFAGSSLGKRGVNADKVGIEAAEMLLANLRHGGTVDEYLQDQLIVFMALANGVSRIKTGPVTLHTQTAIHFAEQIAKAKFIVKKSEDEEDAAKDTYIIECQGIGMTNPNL
Procedure: as §1

PHAX [2] = biological target: PHAX (UniProt Q9H814); assay: Kd (EC50 corrected by depletion factor)
Procedure: as §1

ZC3HAV1 = ZC3HAV1 (UniProt Q7Z2W4); assay: Kd (EC50 corrected by depletion factor)
Procedure: as §1

Sequence of PHAX (Q9H814 whole entry): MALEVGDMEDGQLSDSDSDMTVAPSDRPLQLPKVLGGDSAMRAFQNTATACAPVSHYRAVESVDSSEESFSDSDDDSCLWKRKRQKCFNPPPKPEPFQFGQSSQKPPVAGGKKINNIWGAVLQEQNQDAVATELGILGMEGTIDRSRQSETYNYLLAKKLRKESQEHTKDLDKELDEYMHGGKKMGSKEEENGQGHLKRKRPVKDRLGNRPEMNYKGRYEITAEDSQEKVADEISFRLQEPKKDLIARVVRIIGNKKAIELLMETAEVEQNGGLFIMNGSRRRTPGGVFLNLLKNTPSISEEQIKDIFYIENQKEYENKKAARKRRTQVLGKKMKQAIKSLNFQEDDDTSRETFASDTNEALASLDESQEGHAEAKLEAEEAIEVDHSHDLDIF
Sequence of ZC3HAV1 (Q7Z2W4 whole entry): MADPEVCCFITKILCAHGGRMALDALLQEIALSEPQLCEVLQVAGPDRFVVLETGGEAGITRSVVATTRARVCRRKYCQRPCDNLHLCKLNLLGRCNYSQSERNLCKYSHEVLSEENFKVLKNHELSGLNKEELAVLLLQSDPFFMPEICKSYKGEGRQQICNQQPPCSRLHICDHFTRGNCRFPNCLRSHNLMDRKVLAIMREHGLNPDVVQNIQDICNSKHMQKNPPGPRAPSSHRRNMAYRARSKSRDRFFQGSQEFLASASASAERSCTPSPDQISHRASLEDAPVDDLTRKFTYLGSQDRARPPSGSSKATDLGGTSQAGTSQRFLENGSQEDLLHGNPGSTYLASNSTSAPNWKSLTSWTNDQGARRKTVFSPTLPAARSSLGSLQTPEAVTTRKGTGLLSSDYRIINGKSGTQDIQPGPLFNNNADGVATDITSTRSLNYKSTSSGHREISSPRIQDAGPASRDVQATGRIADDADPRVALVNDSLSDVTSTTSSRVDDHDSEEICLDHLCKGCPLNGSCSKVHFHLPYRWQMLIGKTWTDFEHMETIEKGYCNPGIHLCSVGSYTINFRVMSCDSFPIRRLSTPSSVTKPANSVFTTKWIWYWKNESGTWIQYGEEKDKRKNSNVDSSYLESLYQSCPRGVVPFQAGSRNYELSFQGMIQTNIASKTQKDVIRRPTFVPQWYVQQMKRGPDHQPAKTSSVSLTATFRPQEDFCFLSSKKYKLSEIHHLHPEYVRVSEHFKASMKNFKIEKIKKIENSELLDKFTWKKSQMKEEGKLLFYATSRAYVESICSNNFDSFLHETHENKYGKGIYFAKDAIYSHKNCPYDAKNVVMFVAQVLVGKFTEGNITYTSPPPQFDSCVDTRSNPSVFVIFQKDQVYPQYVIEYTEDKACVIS

CUGUCCU
EC50 (PHAX [1]): 1350 nM
Kd (SSB): 1060 nM
Kd (DHX36): 1850 nM
Kd (LIN28B): 1220 nM
Kd (RTCA): 990 nM
Kd (PHAX [2]): 533 nM
Kd (ZC3HAV1): 867 nM

AAUAAA
EC50 (PHAX [1]): 10700 nM
Kd (SSB): 365 nM
Kd (DHX36): 573 nM
Kd (LIN28B): 610 nM
Kd (RTCA): 81.1 nM
Kd (PHAX [2]): 15500 nM
Kd (ZC3HAV1): 776 nM

UAUUUAU
EC50 (PHAX [1]): 9100 nM
Kd (SSB): 289 nM
Kd (DHX36): 632 nM
Kd (LIN28B): 1100 nM
Kd (RTCA): 273 nM
Kd (PHAX [2]): 5070 nM
Kd (ZC3HAV1): 4310 nM

From the supplement of paper PMC6379048
